Measurements published in patent US20110212075A1, “SCREENING METHOD FOR POLYMORPHIC MARKERS IN HTRA1 GENE IN NEURODEGENERATIVE DISORDERS” (SIEMENS AKTIENGESELLSCHAFT, priority 2007, published 2011).

Tests used:
[1] = biological target: T1, HtrA1 (Homo sapiens, UniProt Q92743); assay: HtrA1 activation by peptides (degradation of wt-tau, SDS/PAGE); type: biochemical; conditions: peptide 200 μM in DMSO, HtrA1 (0.04 μg) preincubated 10 minutes at 37° C., wt-tau (2 μg) 10 minutes at 37° C., Coomassie gel, FIG. 18
T1 construct: made in house; host or cells: Escherichia coli BL21 D3+
Protocol: Purified wt-tau (2 μg) was incubated with HtrA1 (0.04 μg) for 10 minutes at 37° C. HtrA1 was preincubated with different peptides for 10 minutes at 37° C. All peptides were dissolved in DMSO and added to a final concentration of 200 μM. Wt-tau was incubated with DQLAFHQFYI (lane 1), KKKDSRIWWV (lane 2) and with HtrA1 and DMSO as a control (lane 3). Samples were loaded on a SDS/PAGE. The gel was stained with Coomassie Blue.
(§1) HtrA1 interacts with presenilin 1 (PS1). This was evident from data obtained from copurification, comigration during size exclusion chromatography and two hybrid analyses. […] Such a peptide could be used as a basis to synthesise a potent HtrA1 activator that could be of therapeutic relevance. […] This peptide did however not bind to HtrA1 composed of protease and PDZ domain as shown by Isothermal Titration calorimetry. Only after adding […] residues, the peptide did bind to HtrA1.

[2] = biological target: T2, HtrA1 composed of protease and PDZ domain (Homo sapiens, UniProt Q92743); assay: Binding of peptide to HtrA1 by Isothermal Titration calorimetry
T2 construct: HtrA1 composed of protease and PDZ domain
Excerpt: as §1

[3] = biological target: PDZ domain of HtrA1 (Homo sapiens, UniProt Q92743); conditions: Runyon et al. Protein Sci. 16:2454-71 (2007); cited from earlier work
Chain of PDZ domain of HtrA1 (Q92743 365-467 limits assumed): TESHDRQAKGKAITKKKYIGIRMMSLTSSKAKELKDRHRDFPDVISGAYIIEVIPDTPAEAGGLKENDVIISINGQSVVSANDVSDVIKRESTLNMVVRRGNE

T1 sequence (Q92743 158-480 limits assumed): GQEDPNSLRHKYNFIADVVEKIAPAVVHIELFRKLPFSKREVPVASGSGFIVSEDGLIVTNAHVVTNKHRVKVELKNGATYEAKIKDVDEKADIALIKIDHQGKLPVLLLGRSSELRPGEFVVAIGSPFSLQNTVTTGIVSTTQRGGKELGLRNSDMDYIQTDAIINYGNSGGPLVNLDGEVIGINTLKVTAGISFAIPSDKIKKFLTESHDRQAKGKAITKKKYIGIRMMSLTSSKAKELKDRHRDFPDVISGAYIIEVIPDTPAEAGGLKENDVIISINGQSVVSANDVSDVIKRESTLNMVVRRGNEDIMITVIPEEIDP
T2 sequence (Q92743 158-480 limits assumed): as above

Row | Substance | activation of HtrA1 as shown by a more efficient degradation of tau [1] | binding to HtrA1 [2] | binding to the PDZ domain of HtrA1 [3]
1 | DQLAFHQFYI [peptide comprised of the 10 C-terminal residues of PS1 (presenilin 1)] | activate HtrA1 | – | –
2 | DSRIWWV [reference compound] | – | not bind | excellent binding
3 | KKKDSRIWWV [second peptide, DSRIWWV with 3 added N-terminal residues] | weaker activator | did bind | –
